This data set can be described thus: soluble on expression in E. coli; label from the status in PepcDB or PDB records.
For the sequence “MGSDKIHHHHHHLRPDLEHYYLIDQYLENKLTGQELAAFEQQLMQDKAFANEVQEQRMLNNLILEAELKSVRSQIEKDLLNMQTPSFFRMHWQWISAGALCLLGSLFFMLPGKKDIQTVSLQKSAASHIEKENNPDIAPVENTTQKTATALNLPAKTDISDIVTRTQATDTAQAGSLVIAGTPVIVPVNTKTEPALETTAGEENKKTDCSLTKITSVITTENSCMNTETGSIHIDKISGGIAPYTYTLNNKKIKEKNVSALGAGIYEVKISDRNGCLSEQKISILEKNCTPAIQQGTKFNINPMLGETCSIAFDTDKKGSLTIYNRSGKIVYRVTNPSLDYIEWNGSDGTGALAEAGLYVYLIDYTDGTKVTGEVTITR”, the “soluble on expression in E. coli” value is recorded as “not soluble”.

Turning to “AKTPVREILLFDSDEFLQHNAFRAPGAPTLEALRDAEKKVEYFKSIYSNMHKRISTSSTYIDEENLELLNGVTFAFICIDAGTSKKSIVQKLEELDIPFVDVGM”, the “soluble on expression in E. coli” value is recorded as “not soluble”.

With “GGLPIVGDIFRFLDNGRTGLYENYKEFSTELNMTRESNGVKVTINDVISDGRTLSITYSLESEQDLGDDPIILGGLDIMDAHGSSGSGKMTKVTEKKYVGMVTTTHHDSNKKDKVNFRWNIEGIEIPDRKKSIQGHWNFALTVKSMDSKERTIGGSSEKEGIKANMEKVAMSPVSFILYYNQEVSKGARKEWDSVDVELTVKDDLGNDYSGEGNGGSGNDPYNIRWSATFQKLNENATKLIVTPRVHLRVHTPENHGGVEYVNGKEKKIEVPNKEAKKKDIVLDDIVIDLKK”, the “soluble on expression in E. coli” value was “soluble”.

Consider “MGSDKIHHHHHHMSQQQPPAPVEGYQDMVHAAESQFDREQFKQLLMDMVNIPSPTGEEAELARYMADHMTANGLQGQTQYLDDQQANAIGKLPSRSKQGPELLLYASFDTHLGGSDEEERWAGQPLPSMLRPQARLEGDEISGLGAENPKAYAACVTTAATCIAKAGLELPGELTVGLGAGGMTALSRPGFSRRNIGHGAGVMFMLQRGYRPDYCVMCKPVYAVAWEEVGICNFTIRVKGAMGYVGVRHMMPQDQNPFPQVAKVIEALEAWFPTYTARHTSGLVAPQGGISAIEGGWPHKPIITTADVVLHVDIRPSPRTDPVQVKRELQAMLTELSQQHPDVVTELEATLAIPGATTSPDNWIIQSMIRAWEDVEQTPHEPFLNMSGYTDLSVIRQWGVPAARLGVPFRHQEPDPEDSLPMNRVHLDDCYRLIQVLIRSAIDTCSRPIEITQQYQ”, for which the “soluble on expression in E. coli” value is given as “not soluble”.

On to “MGSDKIHHHHHHMLKQLYLTVLRWRPYKHKKVKIVYIMSFPRNDGHLIEQLEQHYHGMIIVLYTKNCQSYAASLNQKGIKTILFDKKTLLITTAISYLKSAPLIFVDNYFPELAILKKKQVVIQLWHANGALKQFGWGAYHTKHRSSKDQIRFQKVYDKMNYFIVNSLKMEAIFRNNYRLENAQFCHFGSPRLAYLEKLEVGETNQNNKVLYAPTYREGMNEMMLVINQAIKAFSAMPNFHFYMKLHPSIQLDAIELPRNVSIWEKHIFESFSEIGYLITDYSSVVFEYMHVKEQPNILFFCPDLEKYALNPGIEPDFFEYLPGPLVENEKQLIVALSNFSINSYKDNITRINEEWNQYQSKETINKIVELVERILGGFCEK”, for which the “soluble on expression in E. coli” value is listed as “not soluble”.

On to “EIEMTQSPSSLSASVGDRVTISCRASQRINTYLNWYQHKPGKAPKLLIYAASSLQSGVPSRFSGSGYGTDFTLTISSLQPEDFASYYCQESLSASYTFGQGTKVEIKRTVAAPSVFIFPPSDEQLKSGTASVVCLLNNFYPREAKVQWKVDNALQSGNSQESVTEQDSKDSTYSLSSTLTLSKADYEKHKVYACEVTHQGLSSPVTKSFNRGEC”, for which the “soluble on expression in E. coli” value is on record as “soluble”.

Regarding “MGKKAHGGKMKPEIDENGTLLVPPPRTIANQDHFHRLNYLYQISAYQTRARQKARTDAHTPLARNYIKSMDLISKKTKTSLLPTIKRTICKKCHRLLWTPKKLEITSDGALSVMCGCGTVKRFNIGADPNYRTYSEREGNLLNS”, the “soluble on expression in E. coli” value is listed as “soluble”.

On to “ETELAFLYERDIYRLLAECDNSRNPDLGLIVRICLATGARWSEAETLTQSQVMPYKITFTNTKSKKNRTVPISDELFDMLPKKRGRLFNDAYESFENAVLRAEIELPKGQLTHVLRHTFASHFMMNGGNILVLKEILGHSTIEMTMRYAHFAPSHLESAVKFNPLSNPAQ”, for which the “soluble on expression in E. coli” value is “soluble”.

The record behind these values is the DeepSol protein solubility set.
